Consider 94 variants from the supplement of paper PMC10567573.

B1: ZNF263 (parent)
chain: HLTRHQRTHTGEKPYKCTLCGENF
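Note: lentivirally expressed fusions sorted by FACS into six bins by GFP to DsRed ratio, PSI derived from sequencing read proportions per bin multiplied by bin number.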

In the data set the parent is B1. As to the kind of experiment: protein stability index of a GFP-peptide fusion (GPS, HEK-293T) (PSI 1-6); higher = more stable. Conditions: c terminus: a fixed tail appended.
HLTRHQRTHTGEKPYKCTLCGEVF [N23V]: the protein stability index is 1.85.

As for HLTRHQRTHTGEKPYKCTLCGECF [N23C], the protein stability index worked out at 3.13.

Consider HLTRHQRTHTGEKPYKCTLCGEQF [N23Q], for which the protein stability index was 2.63.

In the case of HLTRHQRTHTGEKPYKCTLCGESF [N23S], the protein stability index was found to be 2.7.

As for HLTRHQRTHTGEKPYKCTLCGELF [N23L], the protein stability index was determined as 2.34.

Regarding HLTRHQRTHTGEKPYKCTLCGEIF [N23I], the protein stability index stood at 2.57.

For the variant HLTRHQRTHTGEKPYKCTLCGEYF [N23Y], the protein stability index amounted to 2.53.

As for HLTRHQRTHTGEKPYKCTLCGEGF [N23G], the protein stability index turned out to be 4.03.

HLTRHQRTHTGEKPYKCTLCGERF [N23R]: the protein stability index is 3.08.

As to HLTRHQRTHTGEKPYKCTLCGEWF [N23W], the protein stability index is 2.57.

As for HLTRHQRTHTGEKPYKCTLCGEEF [N23E], the protein stability index came out at 2.75.

Take HLTRHQRTHTGEKPYKCTLCGEDF [N23D]: the protein stability index worked out at 3.33.

As to HLTRHQRTHTGEKPYKCTSCGENF [L19S], the protein stability index was 3.14.

For HLTRHQRTHTGEKPYKCTMCGENF [L19M], the protein stability index was 2.83.

As to HLTRHQRTHTGEKPYKCTHCGENF [L19H], the protein stability index is 2.94.

On to HLTRHQRTHTGEKPYKCTCCGENF [L19C], for which the protein stability index was determined as 3.88.

In the case of HLTRHQRTHTGEKPYKCTGCGENF [L19G], the protein stability index is 2.56.

As to HLTRHQRTHTGEKPYKCTYCGENF [L19Y], the protein stability index came out at 2.39.

As to HLTRHQRTHTGEKPYKCTFCGENF [L19F], the protein stability index was determined as 2.62.

In the case of HLTRHQRTHTGEKPYKCTQCGENF [L19Q], the protein stability index turned out to be 2.98.

For the variant HLTRHQRTHTGEKPYKCTKCGENF [L19K], the protein stability index turned out to be 3.7.

On to HLTRHQRTHTGEKPYKCTRCGENF [L19R], for which the protein stability index amounted to 3.03.

Consider HLTRHQRTHTGEKPYKCTPCGENF [L19P], for which the protein stability index amounted to 2.7.

Regarding HLTRHQRTHTGEKPYKCTNCGENF [L19N], the protein stability index worked out at 3.68.

With HLTRHQRTHTGEKPYKCTICGENF [L19I], the protein stability index came out at 3.15.

For the variant HLTRHQRTHTGEKPYKCTWCGENF [L19W], the protein stability index came out at 2.75.

Turning to HLTRHQRTHTGEKPYKCTVCGENF [L19V], the protein stability index came out at 2.86.

HLTRHQRTHTGEKPYKCTECGENF [L19E]: the protein stability index was 3.36.

For HLTRHQRTHTGEKPYKCTDCGENF [L19D], the protein stability index turned out to be 3.84.

In the case of HLTRHQRTHTGEKPYKCTTCGENF [L19T], the protein stability index amounted to 3.64.

On to HLTRHQRTHTGEKPYKCTACGENF [L19A], for which the protein stability index stood at 3.23.

Turning to HLTRHQRTHTGEKPYKCTLCGRNF [E22R], the protein stability index turned out to be 2.29.

For the variant HLTRHQRTHTGEKPYKCTLCGQNF [E22Q], the protein stability index was found to be 2.38.

Take HLTRHQRTHTGEKPYKCTLCGYNF [E22Y]: the protein stability index worked out at 2.39.

For HLTRHQRTHTGEKPYKCTLCGPNF [E22P], the protein stability index amounted to 2.95.

Take HLTRHQRTHTGEKPYKCTLCGGNF [E22G]: the protein stability index was determined as 2.31.

For the variant HLTRHQRTHTGEKPYKCTLCGWNF [E22W], the protein stability index came to 2.13.

On to HLTRHQRTHTGEKPYKCTLCGFNF [E22F], for which the protein stability index was determined as 1.95.

As to HLTRHQRTHTGEKPYKCTLCGLNF [E22L], the protein stability index is 2.08.

For the variant HLTRHQRTHTGEKPYKCTLCGCNF [E22C], the protein stability index is 2.29.

As to HLTRHQRTHTGEKPYKCTLCGHNF [E22H], the protein stability index came to 3.43.

In the case of HLTRHQRTHTGEKPYKCTLCGTNF [E22T], the protein stability index was found to be 2.58.

HLTRHQRTHTGEKPYKCTLCGSNF [E22S]: the protein stability index was determined as 2.9.

For HLTRHQRTHTGEKPYKCTLCGVNF [E22V], the protein stability index turned out to be 2.17.

On to HLTRHQRTHTGEKPYKCTLCGNNF [E22N], for which the protein stability index stood at 2.69.

HLTRHQRTHTGEKPYKCTLCGKNF [E22K]: the protein stability index came out at 2.36.

Regarding HLTRHQRTHTGEKPYKCTLCGINF [E22I], the protein stability index was determined as 2.75.

HLTRHQRTHTGEKPYKCTLCGANF [E22A]: the protein stability index was determined as 2.54.

On to HLTRHQRTHTGEKPYKCTLCGDNF [E22D], for which the protein stability index came out at 3.33.

As to HLTRHQRTHTGEKPYKCTLCGMNF [E22M], the protein stability index was found to be 2.31.

Take HLTRHQRTHTGEKPYKCTLCVENF [G21V]: the protein stability index worked out at 2.26.

Turning to HLTRHQRTHTGEKPYKCTLCDENF [G21D], the protein stability index was found to be 3.26.

In the case of HLTRHQRTHTGEKPYKCTLCCENF [G21C], the protein stability index came to 2.73.

As for HLTRHQRTHTGEKPYKCTLCHENF [G21H], the protein stability index was found to be 3.46.

Take HLTRHQRTHTGEKPYKCTLCIENF [G21I]: the protein stability index amounted to 2.41.

With HLTRHQRTHTGEKPYKCTLCWENF [G21W], the protein stability index amounted to 2.23.

Take HLTRHQRTHTGEKPYKCTLCRENF [G21R]: the protein stability index worked out at 2.46.

On to HLTRHQRTHTGEKPYKCTLCNENF [G21N], for which the protein stability index amounted to 3.02.

Consider HLTRHQRTHTGEKPYKCTLCEENF [G21E], for which the protein stability index stood at 3.58.

In the case of HLTRHQRTHTGEKPYKCTLCAENF [G21A], the protein stability index is 3.27.

On to HLTRHQRTHTGEKPYKCTLCPENF [G21P], for which the protein stability index amounted to 2.68.

Take HLTRHQRTHTGEKPYKCTLCFENF [G21F]: the protein stability index came to 2.43.

As to HLTRHQRTHTGEKPYKCTLCQENF [G21Q], the protein stability index is 2.85.

Regarding HLTRHQRTHTGEKPYKCTLCMENF [G21M], the protein stability index is 3.06.

For HLTRHQRTHTGEKPYKCTLCSENF [G21S], the protein stability index was determined as 2.99.

On to HLTRHQRTHTGEKPYKCTLCYENF [G21Y], for which the protein stability index turned out to be 2.97.

For the variant HLTRHQRTHTGEKPYKCTLCKENF [G21K], the protein stability index was 3.42.

For the variant HLTRHQRTHTGEKPYKCTLCLENF [G21L], the protein stability index is 2.58.

Regarding HLTRHQRTHTGEKPYKCTLCTENF [G21T], the protein stability index was determined as 2.7.

As to HLTRHQRTHTGEKPYKCTLCGENY [F24Y], the protein stability index was found to be 2.9.

HLTRHQRTHTGEKPYKCTLCGENG [F24G]: the protein stability index was 3.67.

Regarding HLTRHQRTHTGEKPYKCTLCGENT [F24T], the protein stability index is 3.85.

With HLTRHQRTHTGEKPYKCTLCGENK [F24K], the protein stability index was determined as 3.12.

As for HLTRHQRTHTGEKPYKCTLCGENQ [F24Q], the protein stability index amounted to 2.88.

In the case of HLTRHQRTHTGEKPYKCTLCGENW [F24W], the protein stability index is 3.08.

On to HLTRHQRTHTGEKPYKCTLCGENC [F24C], for which the protein stability index came to 4.06.

Consider HLTRHQRTHTGEKPYKCTLCGENR [F24R], for which the protein stability index worked out at 3.13.

On to HLTRHQRTHTGEKPYKCTLCGENL [F24L], for which the protein stability index was 3.44.

As for HLTRHQRTHTGEKPYKCTLCGENM [F24M], the protein stability index was determined as 3.58.

Turning to HLTRHQRTHTGEKPYKCTLCGENE [F24E], the protein stability index was determined as 4.08.

Take HLTRHQRTHTGEKPYKCTLCGENH [F24H]: the protein stability index is 3.46.

HLTRHQRTHTGEKPYKCTLCGENP [F24P]: the protein stability index was found to be 3.14.

For the variant HLTRHQRTHTGEKPYKCTLCGENI [F24I], the protein stability index was 3.02.

Regarding HLTRHQRTHTGEKPYKCTLCGENV [F24V], the protein stability index came to 3.47.

For the variant HLTRHQRTHTGEKPYKCTLCGEND [F24D], the protein stability index was 4.62.

HLTRHQRTHTGEKPYKCTLCGENS [F24S]: the protein stability index came to 4.49.

Take HLTRHQRTHTGEKPYKCTLCGENN [F24N]: the protein stability index amounted to 3.7.

Take HLTRHQRTHTGEKPYKCTLCGENA [F24A]: the protein stability index amounted to 4.22.

Take HLTRHQRTHTGEKPYKCWLCGENF [T18W]: the protein stability index worked out at 2.54.

Regarding HLTRHQRTHTGEKPYKCSLCGENF [T18S], the protein stability index was 2.84.

Regarding HLTRHQRTHTGEKPYKCVLCGENF [T18V], the protein stability index was 2.42.

Consider HLTRHQRTHTGEKPYKCYLCGENF [T18Y], for which the protein stability index amounted to 3.09.

With HLTRHQRTHTGEKPYKCRLCGENF [T18R], the protein stability index amounted to 2.68.

In the case of HLTRHQRTHTGEKPYKCQLCGENF [T18Q], the protein stability index turned out to be 2.68.
